Assay [1] deals with human interleukin 12 (p70 heterodimer of p35 and p40) (human) (UniProt P29459). Nature of the assay: SPR (BIAcore), off-rate.
For assay [2], the target named is human interleukin 12 (recombinant human IL-12, p70 heterodimer) (human) (UniProt P29459). In words: cell-based or functional assay.
human interleukin 12 (recombinant human IL-12, p70 heterodimer) (human), sequence (P29459 23-219, chain 1 of 2): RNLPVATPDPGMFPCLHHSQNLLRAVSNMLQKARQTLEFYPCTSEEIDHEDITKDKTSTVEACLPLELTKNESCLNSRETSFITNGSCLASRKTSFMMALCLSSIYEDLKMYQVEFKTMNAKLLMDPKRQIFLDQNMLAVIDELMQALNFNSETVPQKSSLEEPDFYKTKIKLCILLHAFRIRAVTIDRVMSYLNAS
human interleukin 12 (recombinant human IL-12, p70 heterodimer) (human), sequence (P29460 23-328, chain 2 of 2, further chain): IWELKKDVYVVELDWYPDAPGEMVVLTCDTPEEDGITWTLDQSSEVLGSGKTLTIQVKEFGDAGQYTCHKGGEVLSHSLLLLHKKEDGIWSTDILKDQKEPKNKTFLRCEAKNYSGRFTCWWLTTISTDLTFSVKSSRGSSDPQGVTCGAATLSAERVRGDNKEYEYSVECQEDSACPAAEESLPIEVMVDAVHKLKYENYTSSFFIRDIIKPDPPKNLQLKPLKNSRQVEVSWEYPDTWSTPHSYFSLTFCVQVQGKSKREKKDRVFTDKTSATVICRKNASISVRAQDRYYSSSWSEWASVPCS

human interleukin 12 (p70 heterodimer of p35 and p40) (human), sequence (P29459 23-219, chain 1 of 2): as the sequence (P29459 23-219, chain 1 of 2) above
human interleukin 12 (p70 heterodimer of p35 and p40) (human), sequence (P29460 23-328, chain 2 of 2, further chain): as the sequence (P29460 23-328, chain 2 of 2, further chain) above

As to “SEQ ID NO: 385 (Y61, Y at H56) (antibody)”, in assay [1], the koff – broadly, a measure of how fast the partners let go of each other – was found to be 0.00039 s⁻¹.

In assay [1], “SEQ ID NO: 386 (Y61, H at H56) (antibody)” yielded a koff of 0.00042 s⁻¹. This koff and that of the substance before are within 1.5-fold of each other.

Consider “SEQ ID NO: 388 (Y61, T at H56) (antibody)”, for which the koff in assay [1] amounted to 0.000235 s⁻¹.

On to “SEQ ID NO: 389 (Y61, G at H56) (antibody)”, for which, in assay [1], the koff was found to be 0.000272 s⁻¹.

In assay [1], “SEQ ID NO: 390 (Y61, M at H56) (antibody)” returned a koff of 0.000383 s⁻¹.

“SEQ ID NO: 391 (Y61, L at H56) (antibody)” had an off-rate (koff) in assay [1] of 0.000264 s⁻¹.

Turning to “SEQ ID NO: 392 (Y61, I at H56) (antibody)”, the koff in assay [1] was determined as 0.000169 s⁻¹.

In assay [1], “SEQ ID NO: 393 (Y61, P at H56) (antibody)” returned a koff of 0.000299 s⁻¹.

Consider “SEQ ID NO: 394 (Y61, F at H56) (antibody)”, for which the koff in assay [1] worked out at 0.000345 s⁻¹. This koff and that of the substance before are within 1.5-fold of each other.

The substance “SEQ ID NO: 395 (Y61, E at H58) (antibody)” came in with a koff in assay [1] of 0.000416 s⁻¹.

As for “SEQ ID NO: 396 (Y61, S at H58) (antibody)”, in assay [1], the koff was found to be 0.000941 s⁻¹.

Turning to “SEQ ID NO: 398 (Y61, N at H58) (antibody)”, the koff in assay [1] was determined as 0.000831 s⁻¹.

Regarding “SEQ ID NO: 399 (Y61, V at H58) (antibody)”, the koff in assay [1] turned out to be 0.000524 s⁻¹. Compared with the last substance, the koff is about 1.6-fold lower.

For “SEQ ID NO: 400 (Y61, L at H58) (antibody)”, the dissociation rate constant (koff) in assay [1] was 0.00073 s⁻¹.

On to “SEQ ID NO: 401 (Y61, I at H58) (antibody)”, for which the off-rate (koff) in assay [1] stood at 0.000657 s⁻¹. This koff and that of the substance before are within 1.5-fold of each other.

“SEQ ID NO: 402 (Y61, P at H58) (antibody)” yielded a koff in assay [1] of 0.000628 s⁻¹.

In assay [1], “SEQ ID NO: 403 (Y61, F at H58) (antibody)” registered a koff of 0.000794 s⁻¹.

For the substance “SEQ ID NO: 404 (Y61, E at H95) (antibody)”, in assay [1], the off-rate (koff) is 0.00231 s⁻¹. Compared with the last substance, the koff is about 2.9-fold higher.

Substance “SEQ ID NO: 405 (Y61, S at H95) (antibody)” showed a dissociation rate constant (koff) in assay [1] of 0.00193 s⁻¹.

On to “SEQ ID NO: 407 (Y61, K at H95) (antibody)”, for which the koff in assay [1] amounted to 0.00228 s⁻¹.

In the case of “SEQ ID NO: 409 (Y61, T at H95) (antibody)”, in assay [1], the koff was found to be 0.00202 s⁻¹. The koff values of the last two substances are within 1.5-fold of each other.

“SEQ ID NO: 410 (Y61, A at H95) (antibody)”: the dissociation rate constant (koff) in assay [1] stood at 0.0015 s⁻¹.

Take “SEQ ID NO: 411 (Y61, L at H95) (antibody)”: in assay [1], the koff stood at 0.00147 s⁻¹.

On to “SEQ ID NO: 412 (Y61, P at H95) (antibody)”, for which the koff in assay [1] was 0.00471 s⁻¹.

Turning to “SEQ ID NO: 413 (Y61, F at H95) (antibody)”, the koff in assay [1] was determined as 0.00514 s⁻¹.

Consider “SEQ ID NO: 414 (Y61, D at H96) (antibody)”, for which the koff in assay [1] amounted to 0.00224 s⁻¹.

In assay [1], “SEQ ID NO: 415 (Y61, C at H96) (antibody)” gave a koff of 0.000242 s⁻¹.

The substance “SEQ ID NO: 416 (Y61, H at H96) (antibody)” gave an off-rate constant (koff) in assay [1] of 0.000237 s⁻¹. The koff values of the last two substances are within 1.5-fold of each other.

In turn, “SEQ ID NO: 417 (Y61, R at H96) (antibody)” showed a koff in assay [1] of 0.000982 s⁻¹.

Regarding “SEQ ID NO: 421 (Y61, M at H96) (antibody)”, in assay [1], the koff was determined as 0.00204 s⁻¹. Against the preceding substance, the koff is about 2.1-fold higher.

“SEQ ID NO: 423 (Y61, I at H96) (antibody)”: the dissociation rate constant (koff) in assay [1] was 0.00208 s⁻¹.

Regarding “SEQ ID NO: 424 (Y61, P at H96) (antibody)”, the koff in assay [1] was determined as 0.00129 s⁻¹. Compared with the last substance, the koff is about 1.6-fold lower.

In turn, “SEQ ID NO: 425 (Y61, W at H96) (antibody)” had a koff in assay [1] of 0.00197 s⁻¹.

In assay [1], “SEQ ID NO: 426 (Y61, D at H97) (antibody)” displayed a koff of 0.00202 s⁻¹. This koff and that of the substance before are within 1.5-fold of each other.

On to “SEQ ID NO: 428 (Y61, Y at H97) (antibody)”, for which, in assay [1], the koff amounted to 0.00273 s⁻¹.

“SEQ ID NO: 429 (Y61, H at H97) (antibody)” came in with a koff in assay [1] of 0.00191 s⁻¹.

In turn, “SEQ ID NO: 431 (Y61, N at H97) (antibody)” displayed an off-rate (koff) in assay [1] of 0.00221 s⁻¹.

“SEQ ID NO: 433 (Y61, G at H97) (antibody)” showed a koff in assay [1] of 0.00229 s⁻¹.

With “SEQ ID NO: 434 (Y61, A at H97) (antibody)”, the koff in assay [1] amounted to 0.00143 s⁻¹. Against the preceding substance, the koff is about 1.6-fold lower.

As for “SEQ ID NO: 435 (Y61, I at H97) (antibody)”, the koff in assay [1] came to 0.00208 s⁻¹.

Turning to “SEQ ID NO: 436 (Y61, P at H97) (antibody)”, the koff in assay [1] is 0.003 s⁻¹.

In assay [1], “SEQ ID NO: 437 (Y61, W at H97) (antibody)” gave a koff of 0.00239 s⁻¹.

As to “SEQ ID NO: 438 (Y61, F at H97) (antibody)”, the off-rate constant (koff) in assay [1] came out at 0.0018 s⁻¹.

With “SEQ ID NO: 440 (Y61, R at H98) (antibody)”, the koff in assay [1] turned out to be 0.00034 s⁻¹. This koff lies about 5.3-fold lower than the previous one.

In assay [1], “SEQ ID NO: 441 (Y61, T at H98) (antibody)” yielded a koff of 0.000227 s⁻¹.

“SEQ ID NO: 442 (Y61, A at H98) (antibody)” registered a dissociation rate constant (koff) in assay [1] of 0.000673 s⁻¹.

As to “SEQ ID NO: 443 (Y61, V at H98) (antibody)”, the koff in assay [1] turned out to be 0.000293 s⁻¹.

Substance “SEQ ID NO: 445 (Y61, I at H98) (antibody)” gave a koff in assay [1] of 0.000343 s⁻¹. This koff and that of the substance before are within 1.5-fold of each other.

In turn, “SEQ ID NO: 448 (Y61, S at H101) (antibody)” displayed a koff in assay [1] of 0.000449 s⁻¹. This koff and that of the substance before are within 1.5-fold of each other.

In the case of “SEQ ID NO: 450 (Y61, H at H101) (antibody)”, in assay [1], the dissociation rate constant (koff) came to 0.00327 s⁻¹. Against the preceding substance, the koff is about 7.3-fold higher.

In turn, “SEQ ID NO: 451 (Y61, R at H101) (antibody)” displayed a koff in assay [1] of 0.0011 s⁻¹. This koff is about 3-fold lower than that of the substance before.

As for “SEQ ID NO: 452 (Y61, N at H101) (antibody)”, in assay [1], the koff came to 0.00223 s⁻¹.

For the substance “SEQ ID NO: 453 (Y61, G at H101) (antibody)”, in assay [1], the koff amounted to 0.00375 s⁻¹.

For the substance “SEQ ID NO: 454 (Y61, A at H101) (antibody)”, the koff in assay [1] is 0.00106 s⁻¹.

In assay [1], “SEQ ID NO: 455 (Y61, V at H101) (antibody)” returned a koff of 0.00163 s⁻¹.

Consider “SEQ ID NO: 456 (Y61, I at H101) (antibody)”, for which the koff in assay [1] was found to be 0.00162 s⁻¹. The koff values of the last two substances are within 1.5-fold of each other.

In assay [1], “SEQ ID NO: 457 (Y61, S at H102) (antibody)” registered a koff of 0.000325 s⁻¹.

“SEQ ID NO: 458 (Y61, H at H102) (antibody)”: the koff in assay [1] came to 0.00018 s⁻¹.

On to “SEQ ID NO: 459 (Y61, K at H102) (antibody)”, for which the koff in assay [1] was 0.000405 s⁻¹.

In turn, “SEQ ID NO: 460 (Y61, R at H102) (antibody)” gave an off-rate constant (koff) in assay [1] of 0.000575 s⁻¹. This koff and that of the substance before are within 1.5-fold of each other.

On to “SEQ ID NO: 462 (Y61, T at H102) (antibody)”, for which the koff in assay [1] worked out at 0.000333 s⁻¹.

In assay [1], “SEQ ID NO: 463 (Y61, G at H102) (antibody)” displayed a koff of 0.000692 s⁻¹. This koff lies about 2.1-fold higher than the previous one.

In assay [1], “SEQ ID NO: 464 (Y61, A at H102) (antibody)” gave an off-rate (koff) of 0.000382 s⁻¹.

“SEQ ID NO: 465 (Y61, L at H102) (antibody)”: in assay [1], the koff is 0.000956 s⁻¹.

As to “SEQ ID NO: 466 (Y61, I at H102) (antibody)”, the koff in assay [1] came to 0.000996 s⁻¹.

In assay [1], “SEQ ID NO: 467 (Y61, P at H102) (antibody)” gave a dissociation rate constant (koff) of 0.00181 s⁻¹.

Take “SEQ ID NO: 468 (Y61, W at H102) (antibody)”: the koff in assay [1] was found to be 0.000235 s⁻¹. This koff is about 7.7-fold lower than that of the substance before.

“SEQ ID NO: 469 (Y61, F at H102) (antibody)” displayed a koff in assay [1] of 0.000318 s⁻¹. The koff values of the last two substances are within 1.5-fold of each other.

Take Y61 with H31S→E (antibody): the koff in assay [1] came to 0.000219 s⁻¹.

In assay [1], Y61 with L50→Y (antibody) yielded an off-rate constant (koff) of 0.000174 s⁻¹. This koff and that of the substance before are within 1.5-fold of each other.

As to Y61-L94F (antibody), the PHA assay IC50 in assay [2] came out at 60 pM.

For Y61-L94N (antibody), the PHA assay IC50 in assay [2] was found to be 80 pM.

The values above are taken from US20120219562A1.
